Assay results reported in patent publication US20240092844.

System: KLF6-CDK200 RTF 8 phosphate-contact mutant 8 phosphate-contacting Arg to Gln (Homo sapiens)
Assay: cell_activity
Settings: on-target activity reduced 12%; only CDKN1C upregulated in RNA-seq

## TTGAAACTGAAAATACTACATTATGCTA (double strand) [CDKN1C target 200]
  binding signal (% of unmodified CDK200): 88
